Values joined by “and” are separate entries in the source; they are usually repeats but may differ in a detail not shown here. Equal values may be shown once.

The values below come from US5837813.

For assay [1], the target named is human fibronectin (human) (UniProt P02751). The assay is described as follows: Scatchard analysis (LIGAND) of 125I-fibronectin binding to coated fibronectin competed by unlabeled fibronectin.
For assay [2] the target is unchanged. In words: Scatchard analysis (LIGAND) of 125I-fibronectin binding to coated fibronectin competed by unlabeled fibronectin; low affinity site.
The target is the same in assay [3]. In words: Scatchard analysis (LIGAND), fibronectin on coated fibronectin.

Take human fibronectin (from UniProt P02751): the Kd in assay [1] was 8 nM. In assay [2], this substance had a Kd of 800 nM. Also, in assay [3], the binding sites per 1000 fibronectin dimers, high affinity site (sites per 1000 fibronectin dimers) was 1 and 2; the binding sites per fibronectin dimer, low affinity site (sites per fibronectin dimer) was 1 and 2.
